# Where “and” joins values, the source holds several entries; their conditions need not be identical. Identical values can stand only once. Entries after “also recorded” stand apart in the source; their conditions may differ.
# Columns and labels:
# [1] = system: NOD mice receiving spleen cells from diabetic donors; assay: Adoptive transfer of diabetes in NOD mice; format: in vivo
# Excerpt: For the adoptive transfer of diabetes experiments, NOD mice were obtained from Taconic Farms (Germantown, N.Y.) or from the Joslin Diabetes Center (Boston, Mass.). Spontaneously diabetic (D) females of recent onset (13–20 weeks of age) were used as spleen cell donors and 8 week old nondiabetic (Y) females served as recipients. Spleen cells from 4 week old nondiabetic (Y) female donors which fail to transfer disease were used as a negative control.
# Recipient mice were placed on acidified water (1:8400 dilution of concentrated HCl in water) one week prior to sublethal irradiation (775 rad) performed in split doses (300 rad, 300 rad, and 175 rad) on each of three days (day −2, −1, and the day of transfer), in order to minimize any incidence of intestinal infection subsequent to high dose irradiation (Gamma Cell 1000 Cesium ^137 source, Nordion International, Inc., Ontario, Canada). Spleens were harvested from diabetic donors or from nondiabetic controls, cell suspensions made and red cells lysed with Hemolytic Geys solution. […] Another group received PBS alone without cells transferred. The fusion protein LFA-3Ig (LFA-3TIP) was isolated and purified as described in PCT US92/02050 and Miller et al., 1993 [36]. […] Diabetes onset was monitored as described above.
# [2] = system: dual responder allergic sheep; assay: Sheep model of airways hyper-responsiveness (Ascaris suum antigen challenge); format: in vivo
# Protocol: Experiments were performed essentially as described by Abraham et al.. […] To measure breathing mechanics and physical changes in the airways, the sheep were restrained in a prone position with heads immobilized. A balloon catheter was advanced through one nostril under topical anesthesia with 2% lidocaine solution to the lower esophagus, and a cuffed endotracheal tube was advanced through the other nostril (using a flexible fiberoptic bronchoscope as a guide) for the measurement of airway mechanics and during aerosol challenges. Pleural pressure was estimated with the esophageal balloon catheter (filled with 1 ml of air) positioned 5–10 cm from the gastroesophageal junction. In this position, end expiratory pleural pressure ranged between −2 and −5 cm H2O. Once the balloon was placed, it was secured so that it remained in position for the duration of the experiment. Lateral pressure in the trachea was measured with a sidehole catheter, (inner diam. 2.5 mm) advanced through and positioned distal to the tip of the endotracheal tube. Transpulmonary pressure (the difference between tracheal and pleural pressure) was measured with a differential pressure transducer catheter system (MP45, Validyne, Northridge, Calif.). […] Pulmonary resistance (RL) was measured by connecting the proximal end of the endotracheal tube to a Fleich pneumotachograph (Dyna Sciences, Blue Bell Pa.). Signals indicating flow and transpulmonary pressure were recorded on an oscilloscope recorder (Model DR-12; Electronics for Medicine, White Plains, N.Y.) linked to a computer for automatic calculation of pulmonary resistance (RL) from transpulmonary pressure, respiratory volume (obtained by digital integration) and flow by the mid-volume technique, analyzed from 5–10 breaths. Thoracic gas volume (Vtg) was measured immediately after determination of RL in a constant volume body plethysmograph. Specific lung resistance (SRL) was calculated from these values (SRL=Vtg×RL).
# Airway responsiveness was determined by performing dose response curves to inhaled carbachol. The dose response curves were plotted using measurements of SRL taken immediately after inhalation of buffer (PBS) alone and after each consecutive administration of 10 breaths of increasing concentrations of carbachol in PBS. The concentrations of carbachol were 0.25%, 0.5%, 1.0%, 2.0% and 4.0% wt/vol in PBS. The provocation test was discontinued when SRL increased over 400% from the post-PBS value or after the highest carbachol concentration had been administered. Airway responsiveness was determined by calculating from the dose response curves the cumulative carbachol dose in breath units (BU) that increased specific lung resistance 400% over the post buffer value (PD400%). One breath unit was defined as one breath of a 1% wt/vol carbachol solution.
# Each sheep was subjected to a trial as a control in which a placebo (PBS without additive) was used as a pretreatment 30 minutes before allergen challenge with Ascaris suum antigen (Greer Diagnostics, Lenoir, N.C.). The antigen solution was delivered as an aerosol using a disposable medical nebulizer (RAINDROP®, Puritan Bennett, Lenexa, Kans.) that provided an aerosol with a mass median aerodynamic diameter of 3.2 μM (geometric SD 1.9) as determined by an Andersen cascade impactor. The Ascaris suum extract was diluted in PBS to a concentration of 82,000 Protein Nitrogen Units(PNU)/ml. The output of the nebulizer was directed into a plastic T-tube, one end of which was connected to the inspiratory port of a Harvard respirator. A dosimeter connected to the nebulizer consisting of a solenoid valve and a 20 psi compressed air source and the solenoid valve was activated at the beginning of the inspiratory cycle of the Harvard respirator for one second. The aerosol delivered at a tidal volume of 500 ml and a rate of 20 breaths per min. for 20 min. Each sheep was challenged with an equivalent dose of antigen (400 breaths) in the control and VCAM1-IgG1 trials. […]
# VLA-4 = VLA-4 (Homo sapiens, UniProt P13612); assay: VLA-4-mediated T cell activation; format: cell-based
# [3] = system: cotton top tamarins (CTTs) exhibiting symptoms of spontaneous colitis; assay: Cotton top tamarin trials: acute inflammation index from colon biopsies; format: in vivo; parameters: Day 0 AII (acute inflammation index) / Day 10 AII (acute inflammation index): scale not given here; conditions: for Day 0 AII (acute inflammation index) / Day 10 AII (acute inflammation index): individual treated CTTs
# Protocol: Five CTTs received HP1/2 and five received placebo, by intravenous injection. The CTTs receiving HP1/2 were injected with 1 mg HP1/2 per day (i.e., about 2 mg/kg/day, based on approximate half-kilogram weight of a CTT) for eight days (on Days 0, 1, 2, 3, 4, 5, 6, and 7 of the trial). Colon tissue samples obtained from the animals were biopsied every other day (on Days 0, 2, 4, 6, 8, and 10 of the trial). Data from the biopsies were used to determine an acute inflammation index for each animal, giving a semi-quantitative analysis of the course of the colitis. (See, Madara et al..) The inflammation indices before the trial began (Day 0) and at the end of the trial at Day 10 are set forth in Table II, below: (“Treated CTTs” received antibody-HP1/2; “Control CTTs” received placebo) The trial described in Example III was repeated using 14 CTTs, 7 receiving HP1/2 and 7 receiving placebo.
# CTT VLA4 on CTT PBLs = assay: FACS analysis of binding of anti-VLA-4 monoclonal antibodies to CTT peripheral blood mononuclear leukocytes; parameters: species or system cotton top tamarin
# Protocol: Blood samples (3 ml) from CTTs were heparinized and the CTT peripheral blood mononuclear leukocytes (PBLs) were isolated using a Ficoll-Hypaque gradient (Pharmacia) according to the manufacturer's instructions for isolation of human PBLs. CTT PBLs were examined for their ability to bind to the murine anti-human VLA-4 monoclonal antibodies HP1/2 and HP2/1 by FACS analysis using a Becton Dickenson FACStar and standard techniques (see, e.g., Lobb et al., 1991a).
# VCAM-1-expressing cells = assay: Leukocyte adhesion to VCAM-1-expressing cells; format: cell-based
# [4] = 15 mg aerosol 2, 8 and 24 h after antigen challenge, listed as VCAM-Ig
# [5] = 30 mg aerosol 2 and 24 h after antigen challenge (optimal dose), listed as VCAM-Ig
# [6] = 30 mg aerosol 30 min before and 8 h after antigen challenge, listed as VCAM-Ig
# [7] = 30 mg aerosol 30 min before antigen challenge
# [8] = 60 mg aerosol 30 min before antigen challenge, listed as VCAM-Ig
# Sequence of VLA-4 (P13612 34-1032): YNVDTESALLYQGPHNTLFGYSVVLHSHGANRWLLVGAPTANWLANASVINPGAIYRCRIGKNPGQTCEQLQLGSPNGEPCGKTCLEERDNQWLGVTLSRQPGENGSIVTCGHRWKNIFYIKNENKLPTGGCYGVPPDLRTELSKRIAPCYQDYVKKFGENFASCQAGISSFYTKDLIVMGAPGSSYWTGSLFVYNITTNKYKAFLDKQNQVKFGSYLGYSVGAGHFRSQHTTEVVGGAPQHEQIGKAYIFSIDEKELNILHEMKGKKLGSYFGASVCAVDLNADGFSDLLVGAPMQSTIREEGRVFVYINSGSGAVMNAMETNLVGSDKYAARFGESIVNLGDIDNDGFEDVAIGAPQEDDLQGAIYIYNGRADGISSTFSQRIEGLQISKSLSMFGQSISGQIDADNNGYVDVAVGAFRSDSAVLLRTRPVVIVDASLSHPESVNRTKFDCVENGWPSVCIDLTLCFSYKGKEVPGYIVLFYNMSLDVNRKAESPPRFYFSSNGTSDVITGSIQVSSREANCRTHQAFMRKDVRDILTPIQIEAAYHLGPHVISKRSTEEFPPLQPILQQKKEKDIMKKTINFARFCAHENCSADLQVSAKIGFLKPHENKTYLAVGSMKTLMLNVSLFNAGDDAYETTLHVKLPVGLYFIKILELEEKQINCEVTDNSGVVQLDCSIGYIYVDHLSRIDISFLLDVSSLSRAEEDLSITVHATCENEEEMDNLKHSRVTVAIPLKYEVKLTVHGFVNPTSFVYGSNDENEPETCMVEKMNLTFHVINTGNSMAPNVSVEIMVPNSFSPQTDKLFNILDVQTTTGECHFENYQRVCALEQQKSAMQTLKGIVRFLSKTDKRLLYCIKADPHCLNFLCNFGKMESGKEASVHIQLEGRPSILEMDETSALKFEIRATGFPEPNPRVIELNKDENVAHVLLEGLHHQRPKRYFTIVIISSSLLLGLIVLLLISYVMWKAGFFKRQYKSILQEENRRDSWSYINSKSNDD
# Sequence of VLA-4 (P05556 21-798 partner): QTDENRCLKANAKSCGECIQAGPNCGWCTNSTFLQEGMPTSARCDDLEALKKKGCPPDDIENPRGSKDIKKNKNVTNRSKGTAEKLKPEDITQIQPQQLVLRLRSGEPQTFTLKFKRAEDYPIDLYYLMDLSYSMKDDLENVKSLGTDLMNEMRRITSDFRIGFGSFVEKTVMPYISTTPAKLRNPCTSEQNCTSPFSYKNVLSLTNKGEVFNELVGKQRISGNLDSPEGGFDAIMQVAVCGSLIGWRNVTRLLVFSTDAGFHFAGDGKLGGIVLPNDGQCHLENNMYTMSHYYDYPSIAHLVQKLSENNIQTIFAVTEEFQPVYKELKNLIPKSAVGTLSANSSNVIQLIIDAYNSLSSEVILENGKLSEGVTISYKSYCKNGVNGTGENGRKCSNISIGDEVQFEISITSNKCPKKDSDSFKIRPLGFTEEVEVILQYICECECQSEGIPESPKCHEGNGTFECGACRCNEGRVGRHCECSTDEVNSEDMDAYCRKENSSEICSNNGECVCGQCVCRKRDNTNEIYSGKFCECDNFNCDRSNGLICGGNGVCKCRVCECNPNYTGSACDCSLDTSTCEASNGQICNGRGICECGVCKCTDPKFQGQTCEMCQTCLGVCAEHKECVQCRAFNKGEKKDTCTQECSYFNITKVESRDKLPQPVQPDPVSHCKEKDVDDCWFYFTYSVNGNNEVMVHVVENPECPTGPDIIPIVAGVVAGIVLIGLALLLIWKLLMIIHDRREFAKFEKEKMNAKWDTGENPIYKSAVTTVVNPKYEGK
molecule,measurement,setting,value
"VCAM 2D-IgG: soluble form of VCAM1: two N-terminal domains of VCAM1 fused to human IgG1 heavy chain constant region (hinge, CH2, CH3); SEQ ID NO: 5/12",onset of diabetes in recipients of cells from diabetic donor mice,[1]; 100 μg i.p. through day 17,significantly inhibits the onset of diabetes
same,serum level of fusion protein (ELISA),[1]; 100 μg/0.2 ml i.p. twice weekly through day 17,sufficient to saturate VLA4-positive cells
same,incidence of diabetes,"[1]; by day 30 post-transfer, recipients of cells from diabetic donors, 100 μg i.p. through day 17, n=5",60%
same,airways hyper-responsiveness (AHR),[2]; [4],blockage of the AHR; also recorded: inhibition of AHR
same,late phase response (LPR),[2]; [4],partial blockage; also recorded: significant but partial inhibition
same,airways hyper-responsiveness (AHR),[2]; [5],complete blockage; also recorded: complete inhibition
same,late phase response (LPR),[2]; [5],complete blockage; also recorded: complete inhibition
same,airways hyper-responsiveness (AHR),[2]; [6],no blockage; also recorded: no inhibition
same,late phase response (LPR),[2]; [6],blocked completely; also recorded: complete inhibition
same,airways hyper-responsiveness (AHR),[2]; [7],no effect
same,late phase response (LPR),[2]; [7],significant but partial inhibition
same,airways hyper-responsiveness (AHR),[2]; [8],blocked; also recorded: inhibition of AHR
same,late phase response (LPR),[2]; [8],partial blockage; also recorded: significant but partial inhibition
same,late phase response (LPR) versus placebo control,"[2]; all dosing regimens, ten animals",partial or complete inhibition
"HP1/2: murine anti-human VLA-4 monoclonal antibody (IgG1) obtained from Biogen, Inc.; VH/VK in SEQ ID NO: 1-4 (antibody, listed as Mus musculus, V domains shown) VH: EVKLQQSGAELVKPGASVKLSCTASGFNIKDTYMHWVKQRPEQGLEWIGRIDPASGDTKYDPKFQVKATITADTSSNTAWLQLSSLTSEDTAVYYCADGMWVSTGYALDFWGQGTTVTVSS VL: SIVMTQTPKFLLVSAGDRVTITCKASQSVTNDVAWYQQKPGQSPKLLIYYASNRYTGVPDRFTGSGYGTDFTFTISTVQAEDLAVYFCQQDYSSPYTFGGGTKLEI",VLA-4-mediated T cell activation,VLA-4,not to promote
same,change in acute inflammation index,"[3]; Example III, Day 0 to Day 10",significant (p<0.01) decrease
same,Day 0 AII (acute inflammation index),"[3]; Example III, before the trial began, 1 mg HP1/2 per day i.v. Days 0-7",2 (3×) and 1 (2×)
same,Day 10 AII (acute inflammation index),"[3]; Example III, end of trial, 1 mg HP1/2 per day i.v. Days 0-7",1 and 0 (4×)
same,"Day 0 AII, MEAN","[3]; Example III, mean of 5 treated CTTs, before the trial began",1.6
same,"Day 10 AII, MEAN","[3]; Example III, mean of 5 treated CTTs, end of trial",0.2
same,Day 0 AII (acute inflammation index),"[3]; Example IV (repeat trial), Day 0",2
same,Day 10 AII (acute inflammation index),"[3]; Example IV (repeat trial), Day 10",0 (5×) and 1 and 2
same,change in acute inflammation,"[3]; Example IV, Day 0 to Day 10",significant decrease
same,"Day 0 AII, MEAN","[3]; Example IV, mean of 7 treated CTTs, Day 0",2.0
same,"Day 10 AII, MEAN","[3]; Example IV, mean of 7 treated CTTs, Day 10",0.43
same,inflammation of biopsied intestinal tissue,[3]; summary statement,significant reduction in inflammation
same,binding to CTT PBLs,CTT VLA4 on CTT PBLs,bound
same,leukocyte adhesion to VCAM-1-expressing cells,VCAM-1-expressing cells,block

# From patent publication US7176184B2, “Treatment for inflammatory bowel disease with a fibronectin polypeptide” (Biogen Idec MA Inc., priority 1992, dated 2007)
